Experimental findings from patent US20100303821A1 (GlaxoSmithKline, published 2010) are described below.

The target in one assay is T1, cyno IL-13 (cynomolgus, UniProt Q0PW92 21-132).
T1 construct: also called cynomolgus IL-13
Description: SPR Biacore T100; captured on Protein A (CM5), cyno IL13 analyte; 'Impossible off-rates', beyond sensitivity. The procedure: (§1) All binding curves were double referenced with a OnM injection (i.e. buffer alone).
(§2) Regeneration of the Protein A surface was with 50 mM NaOH. The assay was run at 25° C. using HBS-EP as running buffer. The data was fitted to 1:1 model inherent to the Biacore T100 analysis software.
On the technique in general: In SPR one partner is held on a chip, and binding of the other changes the refractive index at the surface.

Assay [1] concerns the target T2, human IL-13 (human, UniProt P35225 35-146). Description: cell-based or functional assay.
For assay [2], the target named is T2, human IL-13. Briefly: cell-based or functional assay. This is another data set of the same source.
Assay [3] deals with T3, human IL-4 (human, UniProt P05112 25-153).
T3 construct: also called recombinant E. coli-expressed human IL-4
T3 sequence (looked up): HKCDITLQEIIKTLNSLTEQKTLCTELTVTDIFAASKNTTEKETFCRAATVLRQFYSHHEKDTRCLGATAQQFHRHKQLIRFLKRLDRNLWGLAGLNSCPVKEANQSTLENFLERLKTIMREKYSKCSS
Briefly: SPR Biacore T100; mAbdAb captured on Protein A (CM5), human IL4 analyte. The procedure:
as §1, §2

Assay [4] has as its target T3, human IL-4. Description: SPR Biacore T100; captured on Protein A (CM5), human IL4 analyte; footnote: on- and off-rate not measurable.

T2 sequence (P35225 other isoform, or with tags, fused parts or gaps limits assumed): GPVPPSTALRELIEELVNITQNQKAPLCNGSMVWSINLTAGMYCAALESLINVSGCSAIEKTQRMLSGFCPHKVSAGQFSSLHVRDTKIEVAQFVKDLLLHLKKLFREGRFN
T1 sequence (Q0PW92 entry or part of it): as the sequence (P35225 other isoform, or with tags, fused parts or gaps limits assumed) above, with G1S, R10K, M42V, S67N, H83R, L100V, R110Q counted along it

B1: BPC3214 (bispecific antibody, human IgG1, kappa)
heavy: not shown
light: DIQMTQSPSSLSASVGDRVTITCRSSQNIVHINGNTYLEWYQQKPGKAPKLLIYKISDRFSGVPSRFSGSGSGTDFTLTISSLQPEDFATYYCFQGSHVPWTFGQGTKLEIKRTVAAPSVFIFPPSDEQLKSGTASVVCLLNNFYPREAKVQWKVDNALQSGNSQESVTEQDSKDSTYSLSSTLTLSKADYEKHKVYACEVTHQGLSSPVTKSFNRGEC
As a reminder, the Kd is a measure of binding affinity in units of concentration. A low value points to tighter binding. What is called koff is the first-order rate constant of dissociation. As for B1, in the assay with cyno IL-13, the Kd stood at 0.0158 nM and the koff was 5.07e-06 s⁻¹.

B2: A1L1 (antibody, human IgG1, kappa, V domains shown)
VH: QVQLVQSGAEVKKPGSSVKVSCKASGFYIKDTYMHWVRQAPGQGLEWMGTIDPANGNTKYVPKFQGRVTITADESTSTAYMELSSLRSEDTAVYYCARSIYDDYHYDDYYAMDYWGQGTLVTVSS
VL: DIVMTQSPLSLPVTPGEPASISCRSSQNIVHINGNTYLEWYLQKPGQSPRLLIYKISDRFSGVPDRFSGSGSGTDFTLKISRVEADDVGIYYCFQGSHVPWTFGQGTKLEIKR
For B2, the “ND50 human IL-13, TF-1 cell proliferation bioassay” value with human IL-13 [1] worked out at 2.52 nM. Moreover, in the assay with human IL-13 [2], the “Mean ND50, TF-1 cell proliferation bioassay” value was determined as 5.01 nM.

B3: BPC1086 (bispecific antibody, human IgG1, kappa)
heavy: not shown
light: DIVMTQSPLSLPVTPGEPASISCRSSQNIVHINGNTYLEWYLQKPGQSPRLLIYKISDRFSGVPDRFSGSGSGTDFTLKISRVEADDVGIYYCFQGSHVPWTFGQGTKLEIKRTVAAPSVFIFPPSDEQLKSGTASVVCLLNNFYPREAKVQWKVDNALQSGNSQESVTEQDSKDSTYSLSSTLTLSKADYEKHKVYACEVTHQGLSSPVTKSFNRGEC
Consider B3, for which the “Mean ND50, TF-1 cell proliferation bioassay” value in the assay with human IL-13 [2] was found to be 1.01 nM.

B4: BPC1093 (bispecific antibody, human IgG1, kappa)
heavy: not shown
light: DIVMTQSPLSLPVTPGEPASISCRSSQNIVHINGNTYLEWYLQKPGQSPRLLIYKISDRFSGVPDRFSGSGSGTDFTLKISRVEADDVGIYYCFQGSHVPWTFGQGTKLEIKRTVAAPSVFIFPPSDEQLKSGTASVVCLLNNFYPREAKVQWKVDNALQSGNSQESVTEQDSKDSTYSLSSTLTLSKADYEKHKVYACEVTHQGLSSPVTKSFNRGEC
notes: also called 829H-(TVAAPS)2GS-154 (89M)
A word on the kon: it is the second-order rate constant of association. Lower therefore signals slower complex formation. In the assay with human IL-4 [3], B4 came in with a Kd of 0.055 nM, a koff of 0.000211 s⁻¹ and a kon of 3.84e+06 M⁻¹ s⁻¹.

B5: BPC1112 (bispecific antibody, human IgG1, kappa)
heavy: not shown
light: DIVMTQSPLSLPVTPGEPASISCRSSQNIVHINGNTYLEWYLQKPGQSPRLLIYKISDRFSGVPDRFSGSGSGTDFTLKISRVEADDVGIYYCFQGSHVPWTFGQGTKLEIKRTVAAPSVFIFPPSDEQLKSGTASVVCLLNNFYPREAKVQWKVDNALQSGNSQESVTEQDSKDSTYSLSSTLTLSKADYEKHKVYACEVTHQGLSSPVTKSFNRGEC
notes: also called 829H-(TVAAPS)2GS-154 (89K)
Regarding B5, the kon in the assay with human IL-4 [4] turned out to be 1.14e+08 M⁻¹ s⁻¹.
